This data set concerns the target T1, CCR2REP (Artificial Sequence, UniProt P05725 SEQ:11-173).
T1 chain: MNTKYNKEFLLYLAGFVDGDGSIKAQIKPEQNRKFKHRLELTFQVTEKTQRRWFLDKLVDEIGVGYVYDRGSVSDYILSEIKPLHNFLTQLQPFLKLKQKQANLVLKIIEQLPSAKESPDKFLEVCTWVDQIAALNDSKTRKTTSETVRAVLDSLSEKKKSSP
In words: cell_activity; LacZ reporter with truncated CMV promoter, HEK 293. Particulars: tags: N-terminal SV40 NLS, C-terminal Kid-1 KRAB; chain copies: 2. An excerpt:
An E. coli beta-galactosidase (LacZ) gene was inserted into the mammalian expression vector pCI (Promega) between PstI and NotI. In this plasmid, LacZ expression is driven by a truncated CMV promoter (corresponding to the 3′ 442 bp of the canonical CMV promoter, SEQ ID NO: 47). A CCR2 recognition sequence (SEQ ID NO: 45) was then inserted at the 5′ end of this promoter (see FIG. 6A).
HEK 293 cells (1×10⁵) were transfected first with either the pCI empty vector or pCI carrying the CCR2REP gene under the control of a constitutive CMV promoter using Lipofectamine 2000 according to the manufacturer's instructions (Invitrogen). 6 hours post-transfection, transfection complexes were removed and replaced with fresh media. 24 hours post-transfection, the cells were re-transfected with the LacZ reporter plasmid using Lipofectamine 2000. As a measure of transfection efficiency, additional cells were transfected at both time points with pCI eGFP. […]
Lysates from transfected cells were subjected to a standard o-nitrophenyl-β-D-galactoside (ONPG) assay (Current Protocols in Molecular Biology. ed. V. B. Chanda. Vol. 2. 2004, John Wiley & Sons, Inc). […] The reaction was stopped with 500 μL 1M Na₂CO₃ after one hour, and the absorbance at 420 nm was measured using a NanoDrop ND-1000 spectrophotometer. β-galactosidase activity was determined using standard equations.

1 molecule from patent US20140010797, “Fusion Molecules of Rationally-Designed DNA-Binding Proteins and Effector Domains” (DUKE UNIVERSITY, published 2014) can be followed below.

B1: CCR2 palindrome (dsDNA)
DNA 1: AGGCATCTCGTACGAGATGCCT
DNA 2: AGGCATCTCGTACGAGATGCCT
For the molecule B1, the activity is about 2.6 fold repression.
